These results are taken from patent US20210363269A1 (ALX ONCOLOGY, published 2021).

Where a chain is given by its changes, count along the chain named. Names may count otherwise.

A word on the koff: it is a measure of how fast the partners let go of each other. Lower therefore signals a long-lived complex. As a reminder, the Kd is the free concentration of one partner at which half of the binding sites on the other are occupied at equilibrium, for simple one-to-one binding. Low values mean higher affinity, high ones lower affinity.

Assay [1] concerns the target T1, human SIRPγ isoform 1 (human, UniProt Q9P1W8 29-147).
T1 construct: also called SIRPg; sirpg
Nature of the assay: SPR. An outline of the steps:
(§1)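 scFv-Fc antibody clones were captured from pre-filtered culture media onto anti-human IgG Fc, amine-coupled at about 4000 RU on a GLC chip in a ProteOn XPR36 instrument. SIRP analytes were passed over in PBS pH 7.4 with 0.01% Tween-20 at 25° C, and responses were double-referenced against interspot and buffer-blank signals. Curves were fitted to a 1:1 Langmuir model. Dissociation rate constants (koff) were taken from those fits.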
A general note: SPR reads the build-up and loss of mass on a sensor chip optically.

In assay [2] the target is T2, mouse 129 SIRP-α D1 domain (mouse (129 strain), UniProt P97797 32-150).
T2 construct: also called m129
T2 chain: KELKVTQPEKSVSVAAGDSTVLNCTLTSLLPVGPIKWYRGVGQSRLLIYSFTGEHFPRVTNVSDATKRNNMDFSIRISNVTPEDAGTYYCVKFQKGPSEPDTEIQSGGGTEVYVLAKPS
Nature of the assay: SPR. An outline of the steps: as §1

Assay [3] concerns the target T3, C57BL/6 mouse SIRP-α D1 domain (mouse (C57BL/6 strain), UniProt P97797 32-148).
T3 sequence: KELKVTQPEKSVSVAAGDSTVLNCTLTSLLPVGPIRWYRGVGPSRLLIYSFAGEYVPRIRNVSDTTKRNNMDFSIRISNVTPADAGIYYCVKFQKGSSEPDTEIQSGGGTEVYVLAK
Nature of the assay: SPR. An outline of the steps: as §1

Assay [4] concerns the target T4, human SIRP-α v1 D1 domain (human, UniProt P78324 31-149).
T4 construct: also called human v1
Nature of the assay: SPR, Langmuir fit. The gist of the method: as §1

For assay [5], the target named is T5, human SIRP-α v2 D1 domain (human).
T5 construct: also called human v2
Nature of the assay: SPR, Langmuir fit. The gist of the method: as §1

The target of assay [6] is T6, cynomolgus SIRP-α D1 domain (cyno2) (cynomolgus monkey, UniProt Q5TFQ8 30-148 (human entry), limits assumed).
T6 chain: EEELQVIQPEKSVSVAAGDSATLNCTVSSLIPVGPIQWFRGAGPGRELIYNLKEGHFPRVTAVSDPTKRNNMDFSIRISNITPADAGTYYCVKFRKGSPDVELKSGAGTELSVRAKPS
Nature of the assay: SPR, Langmuir fit. An outline of the steps:
as §1

In assay [7] the target is T7, human SIRPβ isoform 1 (human, UniProt O00241 30-148).
T7 construct: also called SIRPb; sirpb1
T7 sequence (O00241 30-148 limits assumed): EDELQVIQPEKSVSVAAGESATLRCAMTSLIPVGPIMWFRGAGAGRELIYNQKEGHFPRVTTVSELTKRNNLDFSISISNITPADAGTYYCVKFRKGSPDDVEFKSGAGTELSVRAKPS
Nature of the assay: SPR, Langmuir fit. The gist of the method: as §1

Assay [8] addresses T8, human SIRP-α v1 D1 domain (human, UniProt P78324 31-149).
T8 construct: also called human v1; human α v1
The assay can be described thus: SPR, antibody immobilised on GLC chip. Here is the method:
(§2) All experiments were performed at 25° C. using a SPR-based ProteOn XPR36 biosensor (BioRad, Inc, Hercules, Calif.) equipped with GLC or NLC sensor chips. […] Purification was carried out by standard Protein A affinity column chromatography and eluted antibodies were stored in PBS buffer.
(§3) For the method using GLC chip, the analytes were injected and flowed over anti-SIRPα antibodies immobilized (˜1000 RUs) on GLC chips using Proteon™ Amine Coupling Kit. For the immobilization step, GLC chip was activated with EDAC/Sulpho-NHS 1:1 (Biorad) diluted 1/100 for 300 s at 25 μL/min. Anti-SIRPα antibodies were diluted to 80 nM concentration in 10 mM sodium acetate buffer pH 4.5 and immobilized to the chip at 30 μL/min for 50 s. Chip was inactivated with ethanolamine for 300 s at 25 μL/min. The analytes (e.g., SIRP-α from different species, SIRP-β, SIRP-γ) were injected in a “one-shot” kinetic mode at nominal concentrations of 100, 33, 11, 3.7, 1.2 and 0 nM. Association times were monitored for 90 s at 100 μL/min, and dissociation times were monitored for 1200 s. The surfaces were regenerated with a 2:1 v/v blend of Pierce IgG elution buffer/4M NaCl.

For assay [9], the target named is T9, human SIRPγ isoform 1 (human, UniProt Q9P1W8 29-147).
T9 construct: also called sirpg; sirp-g
The assay can be described thus: SPR, antibody immobilised on GLC chip. Here is the method: as §2, §3

The target of assay [10] is T10, human SIRP-α v2 D1 domain (human).
T10 construct: also called human v2; human α v2
Nature of the assay: SPR, antibody immobilised on GLC chip. Here is the method:
as §2, §3

Assay [11] addresses T11, cynomolgus SIRP-α D1 domain (SEQ ID NO:11) (cynomolgus, UniProt Q5TFQ8 30-148 (human entry), limits assumed).
T11 construct: also called cyno1
T11 chain: T6 chain with D19E, V27A, S28T, A42V, N51H, L52Q, A62P
The assay can be described thus: SPR, antibody immobilised on GLC chip. Here is the method: as §2, §3

Assay [12] addresses T12, human SIRP-α v1 D1 domain (human, UniProt P78324 31-149).
T12 construct: biotinylated and captured on avidin in the ELISA; also called human v1
The assay can be described thus: SPR, antibody immobilised on GLC chip. An outline of the steps: (§4)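 SIRP analytes were run over antibody surfaces in PBS pH 7.4 with 0.01% Tween-20 at 25° C, using one-shot injections at 100, 33, 11, 3.7, 1.2 and 0 nM. The antibodies, purified by Protein A, had been amine-coupled (~1000 RU) to a GLC chip of a ProteOn XPR36 biosensor from an 80 nM solution in 10 mM sodium acetate pH 4.5. Association lasted 90 s at a flow of 100 μL/min, and dissociation lasted 1200 s. KD equals kd/ka, obtained by fitting double-referenced data globally to a Langmuir model.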

Assay [13] has as its target T13, human SIRP-α v2 D1 domain (human).
T13 construct: biotinylated and captured on avidin in the ELISA; also called human v2
The assay can be described thus: SPR, antibody immobilised on GLC chip. The gist of the method:
as §4

Assay [14] addresses T7, human SIRPβ isoform 1. The assay can be described thus: SPR. An outline of the steps:
as §1

In assay [15] the target is T14, high affinity SIRP-α D1 variant CV1-3.
T14 chain: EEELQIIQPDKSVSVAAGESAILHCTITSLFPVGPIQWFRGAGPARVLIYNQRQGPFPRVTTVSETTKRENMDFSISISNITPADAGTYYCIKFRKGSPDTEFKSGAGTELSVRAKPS
Nature of the assay: SPR, Langmuir fit. An outline of the steps:
as §1

Assay [16] concerns the target T15, cynomolgus SIRP-α D1 domain (cyno1) (cynomolgus monkey, UniProt Q5TFQ8 30-148 (human entry), limits assumed).
T15 chain: T6 chain with D19E, V27A, S28T, A42V, N51H, L52Q, A62P
Nature of the assay: SPR, Langmuir fit. An outline of the steps: as §1

B1: S149 (scFv, V domains shown)
VH: DVQLVESGGGVVRPGESLRLSCAASGFTFSNFAMNWVRQAPGEGLEWVSLISVTATTYYADSVKGRFTISRDNSKNTLYLQMNSLRAEDTAVYYCAKVTWNNLFDYWGLGTLVTVSS
VL: EIVLTQSPGTLSLSPGERATLSCRASQPIDSYLAWYQQKPGQAPRLLIYNTVTRATGIPDRFSGSGSGTDFTLTINRLEPEDFAVYYCQHQYDWPPYIFGGGTKVEIK
notes: scFv-Fc format (VL-linker-VH on human IgG1 Fc)
Take B1: the binding result (in the assay with human SIRPγ isoform 1 [1]; in [2]; in assay [3]) was “no binding (tested: Koff > 5 × 10^3 (legend))” in each case. Further, the koff in [4] was found to be 0.00415 s⁻¹; in assay [5], 0.000544 s⁻¹; in assay [6], 0.00258 s⁻¹; in the assay with human SIRPβ isoform 1 [7] it was 0.000331 s⁻¹.

B2: S161 (scFv, V domains shown)
VH: B1 VH with N35T, E43K, L45P, I51V, N76S, V98I
VL: EIVLTQSPGTLSLSPGERATLSCRASQTVGSKLAWYQQKPGQAPRLLIYDSSSRASGIPDRFSGSGSGTDFTLTISSLQSEDSAVYYCQQHNDWPPYTFGGGTKVEIK
notes: as for B1
Regarding B2, the binding result (with human SIRPγ isoform 1 [1]; in [2]; in assay [3]) was “no binding (tested: Koff > 5 × 10^3 (legend))” in each case. For the same molecule, the off-rate (koff) in [4] came out at 0.00337 s⁻¹; in assay [5], 0.000348 s⁻¹; in assay [6] it was 0.00215 s⁻¹; in the assay with human SIRPβ isoform 1 [7], 0.00321 s⁻¹.

B3: antibody 135 variant mut/mut (antibody, human IgG1, V domains shown)
VH: EVQLVESGGGVVQPGGSLRLSCAASGFSFSIYAVSWVRQAPGKGLEWVSTIGADDTYYADSVKGRFTISRDNSKNTLYLQMNSLRAEDTAVYYCAKDSTVGWSGDFFDYWGQGTLVTVSS
VL: EIVLTQSPATLSVSPGERVTLSCRASQNVRSDIAWYQQKPGQAPRLLIYAASSRDTGIPARFSGSGSGTDFTLTISSLQSEDFGVYYCQQYYDWPPFTFGGGTKVEIK
notes: Human IgG1 with L234A/L235A/G237A/N297A; Labels are in the order VL/VH
Consider B3, for which the Kd in assay [8] is 192 pM; with human SIRPγ isoform 1 [9], 733 pM; in assay [10], 17.5 pM; in assay [11], 127 pM.

B4: 135 wt/wt_M34V (antibody, human IgG1, V domains shown)
VH: B3 VH with E1D, Q13R, G16E, K43E, Q112L
VL: B3 VL with L21F, A60D
notes: human IgG1 with L234A, L235A, G237A, N297A
For the molecule B4, the binding result in [12] and in [13] was “binds” throughout.

B5: antibody 135 variant wt/mut (antibody, human IgG1, V domains shown)
VH: B3 VH
VL: B3 VL with L21F, A60D
notes: as for B3
For the molecule B5, the Kd amounted to 184 pM in [8], 779 pM with human SIRPγ isoform 1 [9], 19.7 pM in assay [10] and 125 pM in [11].

B6: 119 wt/wt_M34V (antibody, human IgG1, V domains shown)
VH: B3 VH with E1D, V5L, I31N, Y32F, S35T, K43E, A53S, D54G, G101S, Q112L
VL: EIVLTQSPATLSVSPGERATFSCRASQNVKNDLAWYQQRPGQAPRLLIYAARIRETGIPERFSGSGSGTEFTLTITSLQSEDFAVYYCQQYYDWPPFTFGGGTKVEIK
notes: as for B4
Turning to B6, the binding result in assay [12] and in assay [13] was “binds” in each case.

B7: 119 wt/wt_M34L (antibody, human IgG1, V domains shown)
VH: DVQLLESGGGVVQPGGSLRLSCAASGFSFSNFALTWVRQAPGEGLEWVSTIGSGDTYYADSVKGRFTISRDNSKNTLYLQMNSLRAEDTAVYYCAKDSTVSWSGDFFDYWGLGTLVTVSS
VL: B6 VL
notes: as for B4
On to B7, for which the binding result in assay [12] and in assay [13] was “binds” in each case.

B8: 135 wt/wt_M34L (antibody, human IgG1, V domains shown)
VH: B3 VH with E1D, Q13R, G16E, V34L, K43E, Q112L
VL: B3 VL with L21F, A60D
notes: as for B4
With B8, the binding result in assay [12] and in [13] was “binds” throughout.

B9: antibody 135 wt/wt (parental) (antibody, human IgG1, V domains shown)
VH: B3 VH with E1D, Q13R, G16E, V34M, K43E, Q112L
VL: B3 VL with L21F, A60D
notes: Human IgG1 with L234A/L235A/G237A/N297A; Labels are in the order VL/VH; also called AB135a
With B9, the Kd was 151 pM in assay [8], 539 pM with human SIRPγ isoform 1 [9], 29 pM in assay [10] and 96.9 pM in [11].

B10: antibody 135 variant mut/wt (antibody, human IgG1, V domains shown)
VH: B3 VH with E1D, Q13R, G16E, V34M, K43E, Q112L
VL: B3 VL
notes: as for B3
Turning to B10, the Kd in assay [8] is 149 pM; in the assay with human SIRPγ isoform 1 [9], 522 pM; in assay [10] it was 26.6 pM; in assay [11] it was 102 pM.

B11: S213 (scFv, V domains shown)
VH: DVQLVESGGGVVRPGESLRLSCEASGFTFRNYYMTWVRQAPGEGLEWVSTISDTGDTAYYADSVKGRFTISRDNSKNSLYLQMNSLRADDTAIYYCAKSWIWWTFFDYWGLGTLVTVSS
VL: ALTQPASVSANLGGTVEITCSGGNSNHYGWYQQKSPGSAPVTLIYADTNRPSNIPSRFSGSTSGSTTTLTITGVQAEDEAVYYCGGSSTGDGIFGAGTTLTVL
notes: also called clone 213
B11: the binding result (in assay [3]; with human SIRPβ isoform 1 [14]) was “no binding (tested: Koff > 5 × 10^3 (legend))” each time. Also, the dissociation rate constant (koff) in assay [15] came to 0.00482 s⁻¹; in [5] it was 0.000685 s⁻¹; in assay [16], 0.0026 s⁻¹; in [6], 0.00313 s⁻¹.

B12: S214 (scFv, V domains shown)
VH: B11 VH with G8E, Y32S, D89E
VL: B11 VL with T67S
For B12, the binding result (in [3]; with human SIRPβ isoform 1 [14]) was “no binding (tested: Koff > 5 × 10^3 (legend))” in each case. For the same molecule, the koff in [15] was found to be 0.00453 s⁻¹; in [5], 0.000677 s⁻¹; in [16], 0.00351 s⁻¹; in assay [6], 0.00271 s⁻¹.
